Data on one molecule can be found in patent publication US20250108100A1, “C-TERMINAL FRAGMENT OF APOLIPOPROTEIN E AND APPLICATION THEREOF IN INHIBITING y-SECRETASE ACTIVITY” (SYNPHATEC (SHANGHAI) BIOPHARMACEUTICAL TECHNOLOGY CO., LTD., priority 2022, published 2025).

Entries after “also recorded” stand apart in the source; their conditions may differ.

In assay [1] the test system is HEK 293T cells expressing APP. The experiment in a line: APP-expressing HEK 293T cells co-incubated with culture medium containing secreted ApoE2 or ApoE CT: α-CTF. The assay is classed as cell-based, human. Particulars: vs GFP control. How it is done: (§1) • a) A plasmid expressing the target protein in mammalian cells was constructed, and the protein expression promoter is CAG. • b) The target protein was expressed in HEK 293T cell line. Cells were subcultured one day before transfection, and transfection was performed when the degree of cell adhesion reached 70%-80%. The transfection reagent was lipofectamine2000 (ThermoFisher). • c) 4-6 hours post transfection, the medium were replaced with fresh cell culture medium. • d) 36-48 hours post transfection, the cells were lysed (10% 1M tris-HCl (pH=6.8), 4% SDS, 20% glycerol, 0.01% bromophenol blue), and the protein samples were collected and used for Western blot or stored in a −80° C. freezer. • e) Polyacrylamide gel electrophoresis. Before protein loading, the protein was boiled at 98° C. for 10 min, and then centrifuged at 12000 rpm for 10 min. Electrophoresis: 80V for the upper stacking gel; 120V for the lower separating gel. • f) Protein transfer. […]

Assay [2] has as its system ADAM10, BACE1, PS1 and PS2. Description: mRNA (qRT-PCR) and protein (Western blot) expression of APP secretases in HEK 293T cells. The assay is classed as cell-based, human. On the procedure:
• a) A plasmid expressing the target protein in mammalian cells was constructed, and the protein expression promoter is CAG. • b) The target protein was expressed in HEK 293T cell line. Cells were subcultured one day before transfection, and transfection was performed when the degree of cell adhesion reached 70%-80%. The transfection reagent was lipofectamine2000 (ThermoFisher). • c) 4-6 hours post transfection, the medium were replaced with fresh cell culture medium. • d) 36-48 hours post transfection, the cells were lysed (10% 1M tris-HCl (pH=6.8), 4% SDS, 20% glycerol, 0.01% bromophenol blue), and the protein samples were collected and used for Western blot or stored in a −80° C. freezer. • e) Polyacrylamide gel electrophoresis. Before protein loading, the protein was boiled at 98° C. for 10 min, and then centrifuged at 12000 rpm for 10 min. Electrophoresis: 80V for the upper stacking gel; 120V for the lower separating gel. • f) Protein transfer. The filter paper was soaked in the electrophoresis solution before use, and the PVDF membrane was put in methanol for 10s to activate, and the gel after electrophoresis was taken out from the electrophoresis tank, put in the order of filter paper—PVD membrane—gel-filter paper from bottom to top, and they were put into the transfer instrument, with transferring in constant current at 0.1 A for 70 min. • g) Blocking and antibody incubation: the transferred PVDF membrane was placed in 5% BSA/TBST blocking solution, and blocked on a shaker at room temperature for 1 hour. The primary antibody was used to incubate at 4° C. overnight on a shaker (12-16 h); 1×TBST was used to wash three times, once every 10 minutes; the secondary antibody was used to incubate, shaked at room temperature for 1-2 h; 1×TBST was used to wash three times, once every 10 minutes. • h) Imaging by development: development was performed with ECL chemiluminescence hypersensitive chromogenic reagent. […]
Quantitect SYBR-Green qRT-PCR kit from Qiagen was used to quantitatively analyze the relative content of mRNA. qRT-PCR primers were listed in Table 2. […]

Assay [3] has as its system APLP1. Description: γ-cleavage of APLP1 expressed in HEK 293T cells (Western blot). It is filed as cell-based. Particulars: PF03084014 at 1 μM. On the procedure:
as §1
Plasmids were transfected in HEK 293T or N2A cells for 36-48 hours and then lysed in cell lysis buffer [10% 1M tris-HCl (pH=6.8), 4% SDS, 20% glycerol, 0.01% bromophenol blue]. […] Finally, after washing 3 times with 1×TBST, the signal was detected by ECL Western blotting substrate (Solarbio, PE0010).

For assay [4], the system named is N100 (NOTCH fragment). The experiment in a line: γ-cleavage of NOTCH fragment N100 in HEK 293T cells co-expressing γ-secretase (Western blot). It is filed as cell-based. As to conditions: N100-V5 and γ-secretase, PF03084014 at 1 uM. How it is done:
(§2) Plasmids were transfected in HEK 293T or N2A cells for 36-48 hours and then lysed in cell lysis buffer [10% 1M tris-HCl (pH=6.8), 4% SDS, 20% glycerol, 0.01% bromophenol blue]. Lysates were shaken at room temperature for 10 min, then boiled for 10 min, and centrifuged at 12,000×g for 10 min. Proteins were run on 8% or 12% Tris-glycine SDS-PAGE and transferred to PVDF membranes (Life Technologies). Samples were incubated overnight at 4° C. with primary antibody diluted in 5% BSA buffer (in 1×TBST). After washing 3 times with 1×TBST, they were incubated with secondary antibody diluted in 5% BSA buffer (in 1×TBST) for 2 hours at room temperature. Finally, after washing 3 times with 1×TBST, the signal was detected by ECL Western blotting substrate (Solarbio, PE0010).

The subject of assay [5] is APP mutants. Description: α-CTF produced by APP variants with AD-related mutations co-expressed in HEK 293T cells. It is filed as cell-based, human. How it is done: as §2
Assay [6] concerns APPSW. Description: Aβ40 produced by Swedish APP mutant (APPSW) in HEK 293T cells (ELISA). The assay is classed as cell-based, human. As to conditions: HEK 293T cells expressing APPSW. On the procedure:
48 hours after transfection of HEK 293T cells and N2A cells, or 4.5 days after lentivirus infection of neurons, media and lysates were collected. Aβ40 and Aβ42 in the culture medium and cell lysates were detected by an Aβ ELISA kit as indicated in the protocol. (Invitrogen Technology; KHB3481 for human Aβ40, KHB3441 for human Aβ42 and KMB3481 for mouse Aβ40).

B1: ApoE CT: C-terminal fragment of ApoE, positions 216-299 of SEQ ID NO: 12; SEQ ID NO: 33 (protein)
chain: ARMEEMGSRTRDRLDEVKEQVAEVRAKLEEQAQQIRLQAEAFQARLKSWFEPLVEDMQRQWAGLVEKVQAAVGTSAAPVPSDNH
B1: the “α-CTF produced by APP in cells co-incubated with protein in culture medium” value in assay [1] is on record as “does not significantly alter α-CTF levels; also recorded: does not change the α-CTF; also recorded: does not alter the α-CTF”. In assay [2] (Western blot), the “protein expression of APP metabolizing enzymes” value was “does not affect the protein expression”. Besides, the “mRNA expression of APP metabolizing enzymes” value in assay [2] (qRT-PCR) was “does not affect the mRNA expression”. For the same molecule, the “mRNA and protein expression of ADAM10, BACE1, PS1 and PS2” value in assay [2] (qRT-PCR and Western blot, vs GFP control) was “does not change the mRNA and protein expression; also recorded: not altered”. Further, the “α-like CTF of APLP1” value in assay [3] is “does not increase the α-like CTF of APLP1; also recorded: did not increase the α-like CTF”. Besides, the “γ-secretase-dependent reduction of N100” value in assay [4] is “failed to suppress”. Besides, in assay [5] (APP A673T), the “effect on α-CTF levels, Icelandic mutation” value is recorded as “no difference”. Further, the “ability to increase α-CTF levels compared to WT APP” value in assay [5] (APP fAD mutations near γ cleavage site (T714I, V717F, L723P)) is given as “significantly reduced”. For the same molecule, in assay [5] (HEK 293T cells), the “α-CTF produced by all tested APP mutants” value is listed as “increased α-CTF”. In addition, the “α-CTF produced by APPM596V” value in assay [5] (HEK 293T cells, APP mutation that cannot conduct β-cleavage) was “able to increase α-CTF”. In addition, the “effect on α-CTF levels, WT APP vs APP mutants” value in assay [5] (fAD mutations near β- or α-cleavage site (KM670/671NL, E693K, E693A)) is “no statistically significant difference”. Further, in assay [6], the “Aβ40 in cell lysates, reduced by” value is on record as “approximately 43%” and the “Aβ40 in the medium, reduced by” value is reported as “approximately 76%”.
